Measured values reported in the RNAGym collection of RNA variant scans (doi:10.1073/pnas.2313332121).
Fewer inactive variants are shown than the library holds.

B1: TPR 5TU (parent)
chain: GGAUCUUCUCGAUCUAACAAAAAAGACAAAUCUGCCACAAAGCUUGAGAGCAUCUUCGGAUGCAGAGGCGGCAGCCUUCGGUGGCGCGAUAGCGCCAACGUUCUCAACUAUGACACGCAAAACGCGUGCUCCGUUGAAUGGAGUUUAUCAUG

Variants of: B1
Assay: polymerase ribozyme fitness, log enrichment relative to wild type (log ratio); higher = more active; in vitro selection for triplet polymerase activity
In short: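 Fitness measures genotype enrichment against wild-type enrichment on a logarithmic scale, with inverse-variance-weighted averaging of replicates. The logarithm is base 2, and genotypes were kept only with ≥10 input reads and ≥1 read per output in Illumina sequencing. The sequenced libraries came from one triplicate in vitro selection round, including frozen incubation at −7 °C, of PCR-built, transcribed mutant libraries of each subunit of a heterodimeric triplet polymerase ribozyme.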

Row | Variant | polymerase ribozyme fitness (log ratio)
1 | A23G U90A C93U C105U C125U | ≤ -4.2
2 | G25U A30G C51A C105U G133C | ≤ -4.2
3 | A23G U44A G88A | -4.1
4 | G25C A28G G80C G83A | -4.19
5 | A23U G68A A73U C99U | ≤ -4.2
6 | A26G A39G G42C A49G U55A U56A U130A U135G | ≤ -4.2
7 | A24U A60U G84U | -2.22
8 | G25U G48C A52G C54G C57A A60G C96G U101G | ≤ -4.2
9 | A26C C57U C85G G92U | ≤ -4.2
10 | A23C G133A U135C G141A A150C | ≤ -4.2
11 | A24U A52C C87A | ≤ -4.2
12 | A26G U31A G48A A60C C76G A107C A119U | ≤ -4.2
13 | A24U A97G U151C | ≤ -4.2
14 | A26C U78A G84A G126C C149G | ≤ -4.2
15 | A24G U44A A49C U82G A122U G140C C149U | -4.02
16 | A26G A29C G50A U90G | ≤ -4.2
17 | G25U G34U A47C A89G | ≤ -4.2
18 | G25A C27G A30C C32G G68A C87A A107U | ≤ -4.2
19 | A26C A37U C79U A106U G143C U146A U148C | ≤ -4.2
20 | A26G G88C A91C C93A C116U | ≤ -4.2
21 | A24G C57A G59U C75A U90G C103G C108U A110C G133U G141C | ≤ -4.2

Row | Variant | polymerase ribozyme fitness (log ratio)
22 | A26C G86A C99U G141C | -3.84
23 | A23G A52U C118A A122U | ≤ -4.2
24 | A24U U56A | 0.265
25 | A23G G50C | -4
26 | G25A A30G A41U G50A C87U | ≤ -4.2
27 | G25A C51U G92U A119U G124U | -3.78
28 | A24G G62U C85U U146A | ≤ -4.2
29 | A23G A26C G141A C149G | ≤ -4.2
30 | A26U C93U G117U A137C | ≤ -4.2
31 | G25U C93A A147G | ≤ -4.2
32 | A23C U144C | -4.15
33 | A26G A41C G94A A115C | -3.45
34 | A26C C87U | -1.69
35 | A26G U55G C87A A115U C118U C149G | ≤ -4.2
36 | A23G U56A A97G A115G | -3.42
37 | A24U G59U C87U G128A G140U U151C | ≤ -4.2
38 | A24U U33G U77A C87U | ≤ -4.2
39 | A24G A91U | ≤ -4.2
40 | A24U G48A A49G G50A U55A C123A G136C | ≤ -4.2
41 | A24U C57U C69G G84A C87A A115C | ≤ -4.2
42 | A23G C87U U127C | -3.81

Row | Variant | polymerase ribozyme fitness (log ratio)
43 | A24U U33G U56A A91G C103A | ≤ -4.2
44 | G25U A26G G68C A107G U135C | ≤ -4.2
45 | A23G C35U C51U C93G A121G A122U | ≤ -4.2
46 | G25C G86A G94U | -3.91
47 | G25U C36U G67C C85G C87U A89U | ≤ -4.2
48 | A26U C85U C105U | -1.82
49 | A24U G34C C79G C87U A137U | ≤ -4.2
50 | A23G A49U A60G A119U A120U A122C | -3.98
51 | A26C U44G A91U U145C | ≤ -4.2
52 | A24C G81U C87G U104G A110U | ≤ -4.2
53 | A24U G88C U139C U144C | ≤ -4.2
54 | A23U G42U G58U C75U U148G | ≤ -4.2
55 | A24C C43U C93G G141U | ≤ -4.2
56 | A24U C72U G84U C118U A142G | -3.98
57 | G25U A29U G62U C85G A142C | ≤ -4.2
58 | A26U A40C C76A G92C A121C | ≤ -4.2
59 | A23U A24C A30G A39G C116U | ≤ -4.2
60 | A26G C27U A47G C54A U56G G86A | ≤ -4.2
61 | A26C A29U G126U A138C | ≤ -4.2
62 | A26G A37G A40G G58U G65U G74C G88C U101C U151A | ≤ -4.2
63 | A26G A30C G59A G74A G84U | -3.99

Row | Variant | polymerase ribozyme fitness (log ratio)
64 | G25A C51U G59C G88A U102G G136U | ≤ -4.2
65 | A24U A37U G42C C75G | -3.99
66 | A26U A52U U135A | -2.83
67 | A23U A29U | -3.88
68 | A26C A37G A60U U90A G100C G141A C149U | ≤ -4.2
69 | A24G C38G A40U A110C | ≤ -4.2
70 | A24G G83U | -3.03
71 | A26U C118G | -2.12
72 | A23C G141C | -3.64
73 | A26C C35U G88U C96G C108U G143A | ≤ -4.2
74 | A26G G46A G48C C51U G71C C103U A120G C149G | ≤ -4.2
75 | A26C C32G G34C U44A A107G C131U U139C U145C | ≤ -4.2
76 | A24G G92A A121U A147G | ≤ -4.2
77 | A23C G48C G68C C99U U101C A122U U144G | ≤ -4.2
78 | A23C U56A G86U A115G | ≤ -4.2
79 | A24C C32U A39U U90A C95G A138U U144A | ≤ -4.2
80 | A23U G50A C95U A137G | ≤ -4.2
81 | A24C C85U | -3.65
82 | A26G U53A C85U A91G G133A U139A | ≤ -4.2
83 | A24U G83U C85G G126U | ≤ -4.2
84 | A23G U44G U53G A91C C95U C103A G117A A121C G126A | ≤ -4.2
